Experimental findings from patent publication US20220017630A1 (JIANGSU SIMCERE PHARMACEUTICAL, published 2022) are described below.

In one experiment the target is T1, mouse TNFR2 (mouse, UniProt P25119 23-258, limits assumed).
T1 sequence (looked up): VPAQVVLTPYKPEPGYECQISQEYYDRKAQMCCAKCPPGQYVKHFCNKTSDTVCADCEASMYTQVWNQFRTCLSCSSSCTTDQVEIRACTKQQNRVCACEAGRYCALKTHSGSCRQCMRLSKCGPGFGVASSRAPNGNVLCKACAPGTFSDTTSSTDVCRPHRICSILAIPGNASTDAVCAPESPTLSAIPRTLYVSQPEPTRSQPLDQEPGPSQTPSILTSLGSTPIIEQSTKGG
Briefly: ELISA. On the technique in general: ELISA stands for enzyme-linked immunosorbent assay.

The target in a further experiment is T2, human CREG-His protein (human, UniProt O75629 32-220, limits assumed).
T2 construct: Control antigen in ELISA; also called control human CREG-His
T2 sequence (looked up): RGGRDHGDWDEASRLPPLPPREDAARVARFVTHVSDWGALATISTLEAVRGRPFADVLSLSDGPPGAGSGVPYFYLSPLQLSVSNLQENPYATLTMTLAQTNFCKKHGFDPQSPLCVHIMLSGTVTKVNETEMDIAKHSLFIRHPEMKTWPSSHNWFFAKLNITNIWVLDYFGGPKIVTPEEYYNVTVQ
Briefly: ELISA.

The target in experiment [1] is T3, human TNFR2 on the cell surface (CHO-TNFR2 cells; human Treg cells) (human, UniProt P20333 23-461).
T3 sequence (looked up): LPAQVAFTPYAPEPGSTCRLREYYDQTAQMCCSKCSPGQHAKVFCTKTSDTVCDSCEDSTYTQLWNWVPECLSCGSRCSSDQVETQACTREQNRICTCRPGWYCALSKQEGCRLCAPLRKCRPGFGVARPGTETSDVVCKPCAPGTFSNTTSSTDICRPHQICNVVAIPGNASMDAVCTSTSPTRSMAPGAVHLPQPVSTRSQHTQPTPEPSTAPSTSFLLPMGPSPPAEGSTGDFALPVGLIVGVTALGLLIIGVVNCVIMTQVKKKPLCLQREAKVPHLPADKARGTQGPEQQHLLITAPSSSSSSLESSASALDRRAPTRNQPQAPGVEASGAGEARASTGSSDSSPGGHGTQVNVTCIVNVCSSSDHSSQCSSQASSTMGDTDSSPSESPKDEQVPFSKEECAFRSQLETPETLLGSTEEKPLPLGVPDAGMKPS
Briefly: cell-based or functional assay.

Experiment [2] has as its target T4, human TNFR2 (Novoprotein, Catalog No. C830) (human, UniProt P20333 23-257, limits assumed).
T4 construct: construct not described; also called TNFR2 protein
T4 sequence (looked up): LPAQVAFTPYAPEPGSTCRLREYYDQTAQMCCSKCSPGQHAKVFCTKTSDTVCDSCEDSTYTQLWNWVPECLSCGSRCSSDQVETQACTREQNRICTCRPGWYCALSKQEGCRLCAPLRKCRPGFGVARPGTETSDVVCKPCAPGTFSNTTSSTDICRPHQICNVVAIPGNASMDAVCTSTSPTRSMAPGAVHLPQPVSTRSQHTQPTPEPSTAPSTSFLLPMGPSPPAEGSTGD
Briefly: blocking ELISA, TNFα-biotin on coated human TNFR2, antibody 2 nM. How it is done:
A microplate was pre-coated with 100 μl/well of 1 μg/ml human TNFR2 (Novoprotein, Catalog No. C830). […] After washing the plate, a Streptavidin-HRP working solution (1:10000 dilution) was added at 100 μl/well, and incubated with shaking at room temperature for 40 min. The plate was washed again, the HRP substrate TMB was added for color development, the termination solution was added to terminate the reaction, and the microplate reader was used to read the absorption value.

In experiment [3] the target is T3, human TNFR2 on the cell surface …. Briefly: flow cytometry, blocking of TNFα-biotin on CHO-TNFR2 cells; against 002#. How it is done: CHO cells that stably overexpressed human TNFR2 were used for experiments. The cells were resuscitated and passaged until in good state, and the expression level of human TNFR2 on the cells was assessed by FACS. Compared to the isotype control, the assay could be carried out when the fold change of mean fluorescence intensity (MFI) was more than 100 times.
CHO-TNFR2 cells were digested, washed twice with DPBS and stained with Live/Dead (L/D) at room temperature for 20 min, and then seeded at 1×10⁵ cells/50 μl/well. […] The diluted antibodies were added 50 μl/well into wells pre-seeded with cells, and gently blown and mixed to make the final concentrations of the antibodies to 20, 6.67, 2.22, 0.74, 0.247, 0.08, 0.027 and 0 nM, respectively followed by incubation at 4° C. for 30 min. […] After washing twice with the staining buffer, 100 μl/well of PE-streptavidin was added and incubated at 4° C. for 30 min. After additional washing with the staining buffer twice, 150 μl resuspended cells was analyzed using an flow cytometry. Taking the logarithmic value of the antibody concentrations as abscissa and the corresponding MFI value as ordinate, the inhibition curve of the antibody was drawn, and the IC50 value was calculated by four parameters fitting.
A general note: A flow cytometer gives signals particle by particle.

Experiment [4] has as its target T5, Human TNFR2 recombinant protein (Sino 10417-H08H) (human, UniProt P20333 23-257).
T5 construct: also called hTNFR2 (His tag)
T5 sequence (looked up): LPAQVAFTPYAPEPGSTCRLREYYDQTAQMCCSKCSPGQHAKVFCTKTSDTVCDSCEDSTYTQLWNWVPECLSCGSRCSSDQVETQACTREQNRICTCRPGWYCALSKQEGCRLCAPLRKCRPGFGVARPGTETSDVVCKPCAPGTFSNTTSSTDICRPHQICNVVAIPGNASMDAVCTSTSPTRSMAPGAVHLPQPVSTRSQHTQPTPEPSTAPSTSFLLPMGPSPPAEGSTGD
Kind of experiment: ELISA, coated antigen 0.5 ug/ml, antibody 28 ng/ml. How it is done:
(§1) An microplate was pre-coated with 100 μl/well of 0.5 μg/ml human TNFR2 or cynomolgus TNFR2 (the same antigen protein as in Example 4). […] A mouse anti-human IgG Fc-HRP working solution (1:10000 dilution) was added to the plate at 100 μl/well after plate washing, and incubated with shaking at room temperature for 1.0 h. The plate was washed again, a HRP substrate TMB was added for color development prior to the termination of the reaction by adding termination solution. An microplate reader was used to read the absorption value.

Experiment [5] concerns the target T6, cynomolgus TNFR2 (Sino 90102-C08H) (cynomolgus, UniProt A0A2K5VET2 132-366).
T6 construct: also called CynoTNFR2 (His tag)
T6 sequence: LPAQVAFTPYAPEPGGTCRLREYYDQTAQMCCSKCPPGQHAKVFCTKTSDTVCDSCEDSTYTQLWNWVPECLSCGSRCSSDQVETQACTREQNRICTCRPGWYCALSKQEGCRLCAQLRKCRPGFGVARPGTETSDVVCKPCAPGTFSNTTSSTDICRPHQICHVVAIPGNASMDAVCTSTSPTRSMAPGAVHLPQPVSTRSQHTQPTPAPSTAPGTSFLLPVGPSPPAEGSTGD
Briefly: ELISA, coated antigen 0.5 ug/ml, antibody 28 ng/ml. How it is done: as §1

Experiment [6] concerns the target T3, human TNFR2 on the cell surface …. Kind of experiment: cell-based or functional assay. This is another data set of the same source.

B1: TNFR2 antibody #309 (antibody, V domains shown)
VH: EVQLQESGAELVKPGASVKLSCKASGYTFTSYWIHWVKLRPGQGFEWIGEINPNNGGTDYNEKFKRKATLTVDKSSSTAYMELSSLTSEDSAIYYCTIDSMITTTWFAYWGQGTTVTVSS
VL: EIVMTQSQKLMSTVVGDRVSVTCKASQNVGTNVAWFQQKPGQSPKALINSASYRYSGVPDRFTGSGSGTDFTLTISSVQSEDLAEYFCQQYNSYPFTFGSGTKLEIK
In the case of B1, the binding result with mouse TNFR2 and with human CREG-His protein was “no binding (tested: 12 ng/mL)” each time. Also, the “% AUC versus positive control (#52), ADCC against Treg” value (“% AUC versus positive control” below) in experiment [1] stood at 56%. The “ELISA OD of antibodies to be tested (2 nM)” value (shortened to “ELISA OD of antibodies”) in experiment [2] was found to be 2.14 OD. In experiment [3], the “IC50 Relative Value %” value amounted to 70.7%.

B2: TNFR2 antibody #352 (antibody, V domains shown)
VH: EVQLQESGPGLVAPSQSLSITCTVSGFSLTSYGVHWVRQPPGKGLEWLVVIWSDGGTTYNSALKSRLSISKDNSKSQVFLKMNSLQTDDTAMYYCARHDDDGYYAMDYWGQGTTVTVSS
VL: DIVLTQSPSLMSASPGEKVTMTCSASSSVGYMYWYQQKPRSSPKPWIYLTSNLASGVPARFSGSGSGTSYSLTISSMEVEDAATYYCQQWSSDPFTFGSGTKLEIK
In the case of B2, the binding result with mouse TNFR2 and with human CREG-His protein was “no binding (tested: 28 ng/ml)” in each case. Also, in experiment [1], the “% AUC versus positive control” value stood at 61.4%. Also, the “ELISA OD” value in experiment [4] and in experiment [5] was 3.12 OD throughout. Further, the “ELISA OD of antibodies” value in experiment [2] was determined as 1.78 OD. Also, the “IC50 Relative Value %” value in experiment [3] came out at 171%.

B3: TNFR2 antibody #395 (antibody, V domains shown)
VH: EVQLQESGPVLVQPSQSLSITCTVSGFSLTSYSVHWVRQSPGKGLEWLGVIWSDGGTDYSAAFISRLSISKDNSKSQVFFKMNSLQADDTAIYYCARNDDGGDYAMDYWGQGTTVTVSS
VL: EIVLTQSPALMSASPGEKVTMTCSASSSVSYMYWYQQKPRSSPKPWIYLTSNLASGVPARFSGSGSGTSYSLTISSMEAEDAATYYCQQWSSNPLTFGAGTKLEIK
B3: the binding result with mouse TNFR2 and with human CREG-His protein was “no binding (tested: 28 ng/ml)” in each case. Moreover, the “% AUC versus positive control” value in experiment [1] was determined as 59.3%. In addition, the results for the “ELISA OD” value in experiment [4] and in experiment [5] were 3.17 OD and 3.15 OD, respectively. In addition, in experiment [2], the “ELISA OD of antibodies” value turned out to be 1.14 OD. In experiment [3], the “IC50 Relative Value %” value was found to be 270%.

B4: TNFR2 antibody #224 (antibody, V domains shown)
VH: EVQLQESGPEIVKPGASVKLSCTASGFNNKDIYMHWVKQRPEQGLEWIGRIDPATGNTKHDPKFQDKATLSSDTSSNTAYLQFSSLTSEDTAVYYCAHSPYGDFGAMDYWGQGTTVTVSS
VL: DIQMTQSPAIMSASLGERVTMTCTASSSVSSNYLHWYQQKPGSSPKLWIYSTSNLPSGVPARFSGSGSGTSYSLTISSMEAEDAATYYCHQYHRSPWTFGGGTKLEIK
As for B4, the binding result with mouse TNFR2 and in the experiment with human CREG-His protein was “no binding (tested: 28 ng/ml)” throughout. Besides, the “% AUC versus positive control” value in experiment [1] was found to be 48.1%. Also, the entries for the “ELISA OD” value in experiment [4] and in experiment [5] were 2.23 OD and 2.66 OD, respectively. The “ELISA OD of antibodies” value in experiment [2] was 1.44 OD. For the same molecule, the “IC50 Relative Value %” value in experiment [3] amounted to 132%.

B5: TNFR2 antibody #125 (antibody, V domains shown)
VH: EVQLQESGGGLVQPGGSLNLSCAASGFAFSIYDLSWVRQTPEKRLEWVAYINNGGISTYYSDTVKGRFTISRDNAKNTLYLQMSSLKSEDTAMYYCVRGPFYGSANYFDYWGQGTTVTVSS
VL: DIQMTQSPASLSLSVGETVTITCRASENIYSNLAWYQQKQGKSPQLLVYDATKLAEGVPSRFSGSESGTQYSLKINSLQSEDFGTYYCQHFWVTPWTFGGGTKLEIK
Regarding B5, the binding result with mouse TNFR2 and with human CREG-His protein was “no binding (tested: 28 ng/ml)” in each case. Further, the “proliferation inhibition (TNFα-induced Treg cell proliferation, against anti-Hel)” value (“proliferation inhibition” below) in experiment [6] amounted to 5.2%. The “% AUC versus positive control” value in experiment [1] turned out to be 69.6%. Further, the “ELISA OD” value in experiment [4] stood at 3.32 OD; in experiment [5], 3.25 OD. The “ELISA OD of antibodies” value in experiment [2] stood at 0.599 OD. Also, the “IC50 Relative Value %” value in experiment [3] was 165%.

B6: TNFR2 antibody #088 (antibody, V domains shown)
VH: EVQLQESGGGLVQPGGSLNLSCAASGFAFSTYDLSWVRQTPGKRLEWVAYINNGGISTYYSDTVKGRFTITRDNAKNTLYLQMSSLKSEDTAMYYCVRGPFYGSANYFDYWGQGTTVTVSS
VL: DILMTQSPASLSLFVGETVTITCRASENIYSNLAWYQQKQGKSPQLLVYDATKLAEGVPSRFSGSESGTQYSLKINSLQSEDFGTYYCQHFWVTPWTFGGGTKLEIK
On to B6, for which the binding result with mouse TNFR2 and with human CREG-His protein was “no binding (tested: 12 ng/mL)” in each case. The “proliferation inhibition” value in experiment [6] came to 6.9%. In addition, the “% AUC versus positive control” value in experiment [1] amounted to 45.3%. For the same molecule, in experiment [2], the “ELISA OD of antibodies” value turned out to be 2.34 OD. In experiment [3], the “IC50 Relative Value %” value came to 41.5%.

B7: TNFR2 antibody #001 (antibody, V domains shown)
VH: EVQLQESGGGLVQPGGSLNLSCAASGFAFSTYDLSWVRQTPEKRLEWVAYINNGGISTYYSDTVKGRFTISRDNAKNTLYLQMSSLKSEDTAMYYCVRGPFYGSANYFDYWGQGTTVTVSS
VL: EIVMTQSPASLSLSVGETVTITCRTSESIYSNLPWYQQKQGKSPQLLVYDATKLAEGVPSRFSGSESGTQYSLKINSLQSEDFGTYYCQHFWVTPWTFGGGTKLEIK
notes: also called antibody #1
For the molecule B7, the binding result in the experiment with mouse TNFR2 and with human CREG-His protein was “no binding (tested: 28 ng/ml)” in each case. Further, in experiment [6], the “proliferation inhibition” value was found to be 17.1%. In addition, the “% AUC versus positive control” value in experiment [1] turned out to be 80.8%. In addition, the “ELISA OD” value in experiment [4] is 2.81 OD; in experiment [5], 2.64 OD. In experiment [2], the “ELISA OD of antibodies” value was 0.805 OD. Besides, in experiment [3], the “IC50 Relative Value %” value worked out at 65.6%.
